The record followed here is PMC12255788.

By stoichiometry N is commonly meant a count of units in the complex or per binding partner.

The test concerns the target His6-SUMO-NOT7 (human) (UniProt Q9UIV1). Kind of test: mass photometry.

Sequence of His6-SUMO-NOT7 (human) (Q9UIV1 whole entry): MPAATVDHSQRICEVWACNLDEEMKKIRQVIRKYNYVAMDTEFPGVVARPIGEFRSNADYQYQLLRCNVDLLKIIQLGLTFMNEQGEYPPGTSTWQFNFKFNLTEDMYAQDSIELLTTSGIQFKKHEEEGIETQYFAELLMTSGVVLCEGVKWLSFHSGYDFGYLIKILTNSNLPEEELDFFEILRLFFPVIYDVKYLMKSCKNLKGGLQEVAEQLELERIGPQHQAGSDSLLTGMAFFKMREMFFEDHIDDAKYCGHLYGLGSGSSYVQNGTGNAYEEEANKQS

For “His6-PieF (from UniProt A0AAN5PHN6) (natural protein)”, the stoichiometry N worked out at 1.
